Source: the supplement of paper PMC10567573

B1: CDC25B (parent)
chain: KSPIAPCSLDKRVILIFHCEFSSE
B2: TMEM106C (parent)
chain: YVTTNVSLIPPRSEQLVNFTGKAE

Variants of: B1
Assay: protein stability index of a GFP-peptide fusion (GPS, HEK-293T) (PSI 1-6); higher = more stable
Conditions: c terminus: a fixed tail appended
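Note: lentivirally expressed fusions sorted by FACS into six bins by GFP to DsRed ratio, PSI derived from sequencing read proportions per bin multiplied by bin number.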

Row | Variant | protein stability index
1 | P6H | 2.23
2 | P6C | 2.97
3 | P6F | 3.05
4 | P6Y | 3.74
5 | P6R | 1.89
6 | P6W | 3.61
7 | P6G | 2.54
8 | P6Q | 4.6
9 | P6V | 1.39
10 | A5L | 2.58
11 | A5I | 2.65
12 | A5D | 2.57
13 | A5W | 2.46
14 | A5F | 2.93
15 | A5T | 2.85
16 | A5S | 2.48
17 | A5M | 1.72
18 | A5H | 2.3
19 | A5N | 2.85
20 | A5Q | 1.42
21 | A5Y | 3
22 | A5E | 2.55
23 | P3N | 2.73

Row | Variant | protein stability index
24 | P3H | 2.63
25 | P3W | 2.17
26 | P3G | 1.9
27 | P3A | 2.25
28 | P3I | 2.38
29 | P3L | 3.29
30 | P3Q | 3.1
31 | P3T | 2.17
32 | P3M | 3.46
33 | K1P | 3.88
34 | K1G | 3.01
35 | K1F | 2.7
36 | K1L | 1.86
37 | K1I | 1.11
38 | K1S | 3.48
39 | K1N | 1.96
40 | S2F | 3.02
41 | S2T | 3.22
42 | S2D | 3.82
43 | S2A | 2.37
44 | S2Y | 3.15
45 | S2W | 4.11
46 | S2E | 3.4

Row | Variant | protein stability index
47 | S2M | 1.13
48 | S2I | 1.68
49 | I4N | 2.64
50 | I4Y | 3.53
51 | I4G | 4.68
52 | I4S | 2.89
53 | I4H | 1.94
54 | I4P | 2.2
55 | I4D | 1.16
56 | I4K | 3.59
57 | I4F | 2.53
58 | I4M | 4.09
59 | I4W | 2.72
60 | C7A | 2.03
61 | C7I | 3.17
62 | C7K | 2.56
63 | C7M | 2.15
64 | C7G | 2.4
65 | C7L | 3.92
66 | C7N | 2.54
67 | C7H | 3.31

Variants of: B2
Assay: as above
Conditions: c terminus: a fixed tail appended

Row | Variant | protein stability index
68 | Q15I | 2.37
69 | Q15G | 2.37
70 | Q15Y | 2.69
71 | Q15R | 1.74
72 | Q15F | 1.5
73 | Q15N | 1.55
74 | Q15H | 2.33
75 | Q15A | 1.5
76 | Q15E | 2.07
77 | Q15M | 1.7
78 | Q15T | 2.23
79 | Q15P | 2.28
80 | Q15L | 2.69
81 | Q15V | 2.17
82 | Q15W | 1.86
83 | Q15C | 2.24
84 | Q15K | 1.43
85 | Q15D | 2.08
86 | Q15S | 1.96
87 | R12G | 2.49
88 | R12K | 1.9
89 | R12L | 1.48
90 | R12N | 1.83
91 | R12W | 2.19
92 | R12C | 1.86

Row | Variant | protein stability index
93 | R12M | 2.14
94 | R12A | 2.85
95 | R12T | 2.09
96 | R12D | 1.92
97 | R12I | 1.78
98 | R12Q | 2.1
99 | R12F | 2.75
100 | R12Y | 2.39
101 | R12P | 1.86
102 | R12V | 2.08
103 | R12E | 1.9
104 | R12S | 2.23
105 | R12H | 1.85
106 | A23K | 2.23
107 | A23S | 1.54
108 | A23G | 1.91
109 | A23W | 2.51
110 | A23L | 1.31
111 | A23M | 1.81
112 | A23E | 1.65
113 | A23R | 2.4
114 | A23D | 2
115 | A23I | 2.24
116 | A23T | 1.8
117 | A23Q | 1.74

Row | Variant | protein stability index
118 | A23F | 2.06
119 | A23Y | 2.44
120 | A23N | 1.82
121 | A23V | 2.3
122 | A23P | 1.77
123 | A23C | 1.84
124 | A23H | 2.47
125 | F19W | 2.33
126 | F19E | 2.7
127 | F19R | 1.68
128 | F19S | 2.71
129 | F19M | 1.9
130 | F19K | 2.25
131 | F19G | 1.39
132 | F19Q | 2.54
133 | F19T | 2.65
134 | F19C | 2.06
135 | F19A | 2.03
136 | F19I | 2.02
137 | F19L | 1.96
138 | F19H | 2.56
139 | F19V | 2.28
140 | F19Y | 1.9
141 | F19P | 2.03
142 | F19N | 2

Row | Variant | protein stability index
143 | F19D | 2.01
144 | L16M | 2.02
145 | L16Y | 1.73
146 | L16D | 2.05
147 | L16H | 1.49
148 | L16W | 2.26
149 | L16R | 1.95
150 | L16G | 1.81
151 | L16F | 1.88
152 | L16K | 1.9
153 | L16V | 1.34
154 | L16T | 1.79
155 | L16S | 1.91
156 | L16N | 1.66
157 | L16C | 2.16
158 | L16A | 2.14
159 | L16I | 2.23
160 | L16P | 2.55
161 | L16Q | 1.92
162 | L16E | 2.1
163 | P10Y | 2.88
164 | P10W | 2.56
165 | P10V | 3.38
166 | P10T | 2.42
167 | E24W | 2.93

Row | Variant | protein stability index
168 | E24N | 2.92
169 | E24S | 2.1
170 | E24K | 1.88
171 | E24Y | 2.7
172 | E24A | 2
173 | E24F | 2.81
174 | E24H | 1.49
175 | E24D | 2.58
176 | E24V | 1.41
177 | E24M | 2.05
178 | E24R | 1.48
179 | E24T | 2.75
180 | E24Q | 2.06
181 | E24C | 2.32
182 | E24I | 2.32
183 | E24P | 3.06
184 | E24L | 2.08
185 | E24G | 1.64
186 | S13R | 1.86
187 | S13D | 1.57
188 | S13L | 2.32
189 | S13K | 1.55
190 | S13P | 1.64
191 | S13A | 2.22
192 | S13Y | 2.2

Row | Variant | protein stability index
193 | S13Q | 1.72
194 | S13C | 2.24
195 | S13G | 1.86
196 | S13I | 1.62
197 | S13H | 2.34
198 | S13M | 2
199 | S13V | 2.07
200 | S13T | 1.74
201 | S13W | 1.18
202 | S13N | 2.32
203 | S13E | 1.88
204 | S13F | 2.56
205 | K22R | 1.8
206 | K22V | 2.81
207 | K22Y | 1.61
208 | K22P | 1.76
209 | K22A | 2.23
210 | K22G | 1.89
211 | K22N | 2.04
212 | K22D | 2.08
213 | K22S | 1.72
214 | K22F | 2.26
215 | K22L | 1.96
216 | K22H | 1.96
217 | K22M | 2.54

Row | Variant | protein stability index
218 | K22Q | 1.53
219 | K22E | 1.78
220 | K22W | 3.19
221 | K22I | 1.88
222 | K22T | 2.14
223 | K22C | 2.1
224 | V17I | 2.24
225 | V17N | 1.62
226 | V17R | 1.41
227 | V17W | 3.01
228 | V17C | 2.19
229 | V17H | 2.1
230 | V17P | 2.31
231 | V17A | 1.84
232 | V17E | 2.24
233 | V17Q | 3.85
234 | V17S | 1.55
235 | V17Y | 2.44
236 | V17L | 2.3
237 | V17G | 1.98
238 | V17T | 1.91
239 | V17D | 2.2
240 | V17M | 2.04
241 | V17F | 2.88
242 | V17K | 2.83

Row | Variant | protein stability index
243 | N18M | 2.37
244 | N18Q | 2.07
245 | N18T | 1.62
246 | N18P | 2.4
247 | N18F | 2.28
248 | N18W | 3.06
249 | N18L | 2.14
250 | N18D | 3.25
251 | N18R | 2.33
252 | N18A | 2.02
253 | N18E | 1.3
254 | N18I | 3.13
255 | N18G | 1.7
256 | N18V | 1.81
257 | N18C | 1.95
258 | N18H | 2.38
259 | N18S | 2.36
260 | N18K | 2.71
261 | E14G | 1.59
262 | E14A | 2.11
263 | E14N | 1.8
264 | E14Y | 2.19
265 | E14D | 1.46
266 | E14M | 2.26
267 | E14Q | 1.5

Row | Variant | protein stability index
268 | E14F | 1.99
269 | E14T | 2.79
270 | E14L | 2.27
271 | E14R | 1.87
272 | E14I | 2.17
273 | E14S | 1.79
274 | E14W | 2
275 | E14H | 1.92
276 | E14K | 2.16
277 | E14V | 2
278 | E14P | 2.18
279 | G21D | 2.71
280 | G21A | 1.99
281 | G21K | 1.59
282 | G21V | 2.12
283 | G21P | 3.07
284 | G21Y | 3.28
285 | G21N | 2.75
286 | G21W | 2.5
287 | G21M | 3.92
288 | G21T | 1.86
289 | G21F | 2.77
290 | G21C | 1.83
291 | G21Q | 2.3
292 | G21E | 2.49

Row | Variant | protein stability index
293 | G21I | 2.1
294 | G21R | 2.32
295 | G21H | 2.1
296 | G21S | 1.6
297 | G21L | 1.58
298 | P11K | 2.01
299 | P11M | 1.45
300 | P11V | 1.41
301 | P11Y | 2.75
302 | P11Q | 2.12
303 | P11T | 1.74
304 | P11H | 1.97
305 | P11A | 1.6
306 | P11E | 1.72
307 | P11W | 3.67
308 | P11N | 2.37
309 | P11S | 2.65
310 | P11I | 2.3
311 | P11L | 1.51
312 | P11F | 3.09
313 | P11D | 2.11
314 | P11G | 2.51
315 | P11R | 1.41
316 | T20M | 3.02
317 | T20C | 2.34

Row | Variant | protein stability index
318 | T20A | 2.27
319 | T20S | 1.51
320 | T20F | 2.31
321 | T20R | 2.19
322 | T20I | 2.08
323 | T20P | 2.29
324 | T20N | 1.53
325 | T20V | 1.84
326 | T20E | 2.09
327 | T20W | 2.85
328 | T20H | 1.86
329 | T20L | 1.99
330 | T20K | 2.11
331 | T20Q | 1.66
332 | T20G | 2.13
333 | T20Y | 2.86
334 | T20D | 1.95
